Data reported in publication PMC3206906, “P50, the Small Subunit of DNA Polymerase Delta, Is Required for Mediation of the Interaction of Polymerase Delta Subassemblies with PCNA” (PLoS ONE, 2011).

Target: T1, digoxigenin (DIG)-labeled recombinant human PCNA (human, UniProt P12004 1-261, digoxigenin label (DIG Protein Labeling Kit); labeled residues not stated)
T1 construct: proliferating cell nuclear antigen (PCNA), human, recombinant wild type; Same protein as m1, chemically labeled with digoxigenin and used as the probe in the overlay; also called PCNA-DIG; DIG-labeled PCNA
T1 sequence (P12004 whole entry): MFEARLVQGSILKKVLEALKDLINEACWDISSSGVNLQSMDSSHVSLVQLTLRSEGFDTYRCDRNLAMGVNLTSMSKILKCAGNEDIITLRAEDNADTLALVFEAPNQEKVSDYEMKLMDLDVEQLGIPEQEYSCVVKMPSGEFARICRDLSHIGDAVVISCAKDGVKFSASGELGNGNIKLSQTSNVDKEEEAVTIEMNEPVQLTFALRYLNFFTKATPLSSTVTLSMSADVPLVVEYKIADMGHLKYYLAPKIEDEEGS
Assay: far-Western, overlay or dot blot; Increasing amounts of non-tagged p50 or purified pol δ4 run on 12% SDS-PAGE and transferred to nitrocellulose; probed with DIG-labeled PCNA in PBS for one hour (1:10,000 dilution of 0.15 mg/ml stock); detected with Anti-DIG-HRP and ECL; films for p50 slightly overexposed
Settings: both partners purified

B1: p12 subunit of recombinant human DNA polymerase δ four-subunit complex (natural protein, UniProt Q9HCU8 1-107, looked up)
chain: MGRKRLITDSYPVVKRREGPAGHSKGELAPELGEEPQPRDEEEAELELLRQFDLAWQYGPCTGITRLQRWCRAKQMGLEPPPEVWQVLKTHPGDPRFQCSLWHLYPL
notes: also called pol δ4 subunit p12; source: Bombyx mori (silkworm) bioreactor, purified as the pol δ four-subunit complex, resolved by SDS-PAGE
  binding result: binds
